This data set deals with the molecule itself. The experiment in a line: […], pH 6.6.

B1: Nup100f-Trp-7xHis (WT) (domain or fragment)
chain: GVFGQNNNQMQINGNNNNSLFGKANTFSNSASGGLFGQNNQQQGSGLFGQNSQTSGSSGLFGQNNQKQPNTFTQSNTGIGLFGQNNNQQQQSTGLFGAKPA
As for B1, the binding result was “binds”.

The values above are taken from PMC3609069 (Prion, 2012).
